Reference: IntAct's records for PubMed 18394558

B1: Cyclin-dependent kinase 4 inhibitor C (Homo sapiens), P42773 (parent)
chain: MAEPWGNELASAAARGDLEQLTSLLQNNVNVNAQNGFGRTALQVMKLGNPEIARRLLLRGANPDLKDRTGFAVIHDAARAGFLDTLQTLLEFQADVNIEDNEGNLPLHLAAKEGHLRVVEFLVKHTASNVGHRNHKGDTACDLARLYGRNEVVSLMQANGAGGATNLQ

Variants of: B1
Conditions: with cdk6_human CDK6, Q00534
Sequence of cdk6_human CDK6, Q00534 (Q00534 whole entry): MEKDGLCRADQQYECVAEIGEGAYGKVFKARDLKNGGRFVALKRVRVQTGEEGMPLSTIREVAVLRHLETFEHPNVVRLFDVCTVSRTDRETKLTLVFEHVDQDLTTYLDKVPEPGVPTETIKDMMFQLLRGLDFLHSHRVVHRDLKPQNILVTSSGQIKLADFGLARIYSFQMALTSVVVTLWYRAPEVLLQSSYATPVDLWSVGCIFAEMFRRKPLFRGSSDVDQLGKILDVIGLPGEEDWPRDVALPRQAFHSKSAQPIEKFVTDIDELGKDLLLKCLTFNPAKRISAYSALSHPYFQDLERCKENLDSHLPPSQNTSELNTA

Variant | effect of a mutation on the interaction
MAEPWGNELASAAARGDLEQLTSLLQNNVNVNAQNGFGRTALQVMKLGNPEIARRLLLRGDNPDLKDRTGFAVIHDAARAGFLDTLQTLLEFQADVNIEDNEGNLPLHLAAKEGHLRVVEFLVKHTASNVGHRNHKGDTACDLARLYGRNEVVSLMQANGAGGATNLQ [A61D] | decreasing interaction
MAEPWGNELASAAARGDLEQLTSLLQNNVNVNAQNGIGRTALQVMKLGNPEIARRLLLRGANPDLKDRTGFAVIHDAARAGFLDTLQTLLEFQADVNIEDNEGNLPLHLAAKEGHLRVVEFLVKHTASNVGHRNHKGDTACDLARLYGRNEVVSLMQANGAGGATNLQ [F37I] | disrupting interaction
